Measured values published in patent publication US20180333502A1 (published 2018).

T1: human GITR on cells (activated human T cells; 3A9-hGITR cells) (human, UniProt Q9Y5U5 26-241)
T1 chain: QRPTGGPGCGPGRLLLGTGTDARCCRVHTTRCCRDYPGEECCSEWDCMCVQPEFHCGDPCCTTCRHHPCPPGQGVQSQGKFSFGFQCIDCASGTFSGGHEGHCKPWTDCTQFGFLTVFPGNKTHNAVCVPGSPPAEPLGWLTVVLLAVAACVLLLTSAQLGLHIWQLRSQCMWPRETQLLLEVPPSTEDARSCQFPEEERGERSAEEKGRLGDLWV


Molecular target: T1, human GITR on cells (activated human T …)
Experiment: FACS binding to activated human CD4 T cells

| EC50 [nM] | Binder |
| --- | --- |
| 0.277 | anti-GITR-IgG2 (antibody) heavy: QVQLVESGGGVVQPGRSLRLSCAASGFTFSSYGMHWVRQAPGKGLEWVAVIWYEGSNKYYADSVKGRFTISRDNSKNTLYLQMNSLRAEDTAVYYCARGGSMVRGDYYYGMDVWGQGTTVTVSSASTKGPSVFPLAPCSRSTSESTAALGCLVKDYFPEPVTVSWNSGALTSGVHTFPAVLQSSGLYSLSSVVTVPSSNFGTQTYTCNVDHKPSNTKVDKTVERKCCVECPPCPAPPVAGPSVFLFPPKPKDTLMISRTPEVTCVVVDVSHEDPEVQFNWYVDGVEVHNAKTKPREEQFNSTFRVVSVLTVVHQDWLNGKEYKCKVSNKGLPAPIEKTISKTKGQPREPQVYTLPPSREEMTKNQVSLTCLVKGFYPSDIAVEWESNGQPENNYKTTPPMLDSDGSFFLYSKLTVDKSRWQQGNVFSCSVMHEALHNHYTQKSLSLSPGK light: not shown |
| 0.163 | anti-GITR-IgG2-IgG1.1 (antibody) heavy: QVQLVESGGGVVQPGRSLRLSCAASGFTFSSYGMHWVRQAPGKGLEWVAVIWYEGSNKYYADSVKGRFTISRDNSKNTLYLQMNSLRAEDTAVYYCARGGSMVRGDYYYGMDVWGQGTTVTVSSASTKGPSVFPLAPCSRSTSESTAALGCLVKDYFPEPVTVSWNSGALTSGVHTFPAVLQSSGLYSLSSVVTVPSSNFGTQTYTCNVDHKPSNTKVDKTVERKCCVECPPCPAPPVAGPSVFLFPPKPKDTLMISRTPEVTCVVVDVSHEDPEVKFNWYVDGVEVHNAKTKPREEQYNSTYRVVSVLTVLHQDWLNGKEYKCKVSNKALPSSIEKTISKAKGQPREPQVYTLPPSREEMTKNQVSLTCLVKGFYPSDIAVEWESNGQPENNYKTTPPVLDSDGSFFLYSKLTVDKSRWQQGNVFSCSVMHEALHNHYTQKSLSLSPG light: not shown |
